Residue numbers refer to the chain shown, from its start.
B1: de-prodrugged Antibody A1 (antibody, human IgG1, kappa, V domains shown)
VH: QVQLVESGGGVVQPGRSLRLSCAASGFTFSSYTMHWVRQAPGKGLEWVTFISYDGNCKYYADSVKGRFTISRDNSKNTLYLQMNSLRAEDTAIYYCARTGWLGPFDYWGQGTLVTVSS
VL: not shown
modifications: succinimide residue (or its ring-opened derivative) left on the substituted-in Cys of VH CDR2 after cleavage of the linker
B2: de-prodrugged Antibody B1 (antibody, human IgG1, kappa, V domains shown)
VH: B1 VH with C57N
VL: not shown
modifications: succinimide residue (or its ring-opened derivative) left on Cys 28 of SEQ ID NO:10 after cleavage of the linker
B3: de-prodrugged Antibody C1 (antibody, human IgG1, kappa, V domains shown)
VH: B1 VH with C57N
VL: not shown
modifications: succinimide residue (or its ring-opened derivative) left on Cys 31 of SEQ ID NO:10 after cleavage of the linker
B4: de-prodrugged Antibody D1 (antibody, human IgG1, kappa, V domains shown)
VH: B1 VH with C57N
VL: not shown
modifications: succinimide residue (or its ring-opened derivative) left on Cys 53 of SEQ ID NO:10 after cleavage of the linker
B5: de-prodrugged Antibody E1 (antibody, human IgG1, kappa, V domains shown)
VH: B1 VH with C57N
VL: not shown
modifications: succinimide residue (or its ring-opened derivative) left on Cys 57 of SEQ ID NO:10 after cleavage of the linker

Target: T1, CTLA4 (UniProt P16410 36-223, limits assumed)
T1 sequence (looked up): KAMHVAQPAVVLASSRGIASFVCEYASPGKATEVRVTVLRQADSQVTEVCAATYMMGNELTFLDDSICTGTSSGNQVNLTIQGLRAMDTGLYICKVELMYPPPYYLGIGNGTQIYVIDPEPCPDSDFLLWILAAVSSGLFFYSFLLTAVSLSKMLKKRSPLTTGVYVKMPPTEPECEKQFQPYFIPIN
Assay: cell-based or functional assay

Binder | IL-2 secretion by SEB-stimulated PBMC (HTRF)
B1 | ~3 fold
B2 | ~3 fold
B3 | ~3 fold
B4 | ~3 fold
B5 | ~3 fold

Source: patent US20220251206A1 (Bristol-Myers Squibb, published 2022)
